# Where “and” joins values, the source holds several entries; their conditions need not be identical. Equal entries are not always repeated.
# B1: B.VHH14: second anti-STAT3 sdAb, named VHH14 (SEQ ID NO. 4) (protein)
# VHH: QVQLVESGGGSVQAGGSLRLSCVASTYTGCMGWFRQAPGKEREGVAALSSRGFAGHYTDSVKGRFSISRDYVKNAVYLQMNTVKPEDAAMYYCAAREGWECGETWLDRTAGGHTYWGQGTLVTVSS
# modifications: Camelid
# B2: anti-TNF-alpha VHH69: second anti-TNF-alpha sdAb (SEQ ID NO. 46) (protein)
# VHH: EVQLVESGGGSVLAGGSLRLSCVASGFTSRYNYMAWFRQAPGKEREGVATIGTASGSADYYGSVKDRFTISQDNAKNTVYLQMNSLKPEDTAMYYCAARTYGTISLTPSDYRYWGQGTLVTVSS
# modifications: Camelid
# B3: anti-TNF-alpha VHH62: third anti-TNF-alpha sdAb (SEQ ID NO. 47) (protein)
# VHH: QVQLVESGGGPVQAGETLRLSCTASGFTFAEADMGWYRQAPGHECELVSTITTEGITSEASSYYADSVRGRFTISRDNAKNMVYLQMNSLKPEDTAVYYCAPDPYAYSTYSDYCSWAQGTQGTLVTVSS
# modifications: Camelid
# Tests used:
# [1] = test system: MDA-MB-231 cells; test: MTT proliferation assay, MDA-MB-231; format: cell-based, human; details: for Mean Absorbance (570 nM) ± S.E., Overall Mean: mean of 4 experiments; for Mean Growth Inhibition: individual experiments 1-4;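 as to all read-outs here: cultures held at 37 °C in humidified 5% CO2, treated groups compared against vehicle-treated controls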
# [2] = target: T1, TNF-alpha (Homo sapiens, UniProt P01375); test: Inhibition of TNF-alpha cytotoxicity against U937 by anti-TNF-alpha sdAbs; format: cell-based; details: constant dose of TNF-alpha at EC50
# T1 construct: host or cells: added exogenously to U937 cells
# T1 sequence (P01375 77-233 limits assumed): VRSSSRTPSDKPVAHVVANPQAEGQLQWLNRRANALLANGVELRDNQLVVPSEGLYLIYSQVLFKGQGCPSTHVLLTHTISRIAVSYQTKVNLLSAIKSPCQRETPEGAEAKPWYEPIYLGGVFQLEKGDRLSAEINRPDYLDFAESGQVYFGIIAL
Molecule,"Mean Absorbance (570 nM) ± S.E. ([1]; Day 3, 10.0 μg/ml, individual experiments 1-4 (Table 6))","Mean Absorbance (570 nM) ± S.E., Overall Mean ([1]; Day 3, 10.0 μg/ml)","Mean Absorbance (570 nM) ± S.E. ([1]; Day 3, 100 μg/ml, individual experiments 1-4 (Table 6))","Mean Absorbance (570 nM) ± S.E., Overall Mean ([1]; Day 3, 100 μg/ml)","Mean Absorbance (570 nM) ± S.E. ([1]; Day 5, 10.0 μg/ml, individual experiments 1-4 (Table 7))","Mean Absorbance (570 nM) ± S.E., Overall Mean ([1]; Day 5, 10.0 μg/ml)","Mean Absorbance (570 nM) ± S.E. ([1]; Day 5, 100 μg/ml, individual experiments 1-4 (Table 7))","Mean Absorbance (570 nM) ± S.E., Overall Mean ([1]; Day 5, 100 μg/ml)","Mean Growth Inhibition ([1]; post 3 days, 10.0 μg/ml)","Mean Growth Inhibition ([1]; post 3 days, 100 μg/ml)","Mean Growth Inhibition ([1]; post 5 days, 10.0 μg/ml)","Mean Growth Inhibition ([1]; post 5 days, 100 μg/ml)",inhibition of killing of U937 by TNF-alpha [2]
B1,0.456 ± 0.048 and 0.499 ± 0.018 and 0.502 ± 0.048 and 0.559 ± 0.041,0.504 ± 0.021,0.255 ± 0.005 and 0.357 ± 0.019 and 0.308 ± 0.021 and 0.287 ± 0.021,0.302 ± 0.043,0.640 ± 0.011 and 0.338 ± 0.023 and 0.930 ± 0.044 and 0.842 ± 0.052,0.688 ± 0.131,0.549 ± 0.023 and 0.274 ± 0.032 and 0.578 ± 0.039 and 0.499 ± 0.036,0.475 ± 0.0690,23.1% and 20.0% and 38.5% and 23.3%,57.0% and 42.8% and 62.3% and 60.6%,5.5% and 25.9% and 5.4% and 22.9%,18.9% and 39.9% and 41.2% and 54.3%,–
B2,–,–,–,–,–,–,–,–,–,–,–,–,inhibit killing of U937 by TNF-alpha
B3,–,–,–,–,–,–,–,–,–,–,–,–,inhibit killing of U937 by TNF-alpha

# From patent US9663570B2, “Single domain antibodies directed against KRAS” (SINGH MOLECULAR MEDICINE, LLC, priority 2014, dated 2017)
